This note sets out measurements from patent US20160376353A1 (DECIMMUNE THERAPEUTICS, published 2016).

The Kd is the free concentration of one partner at which half of the binding sites on the other are occupied at equilibrium, for simple one-to-one binding. One may read the koff as the rate constant with which the complex falls apart. Broadly, the kon is the second-order rate constant of association.

Assay [1] deals with T1, N2 peptide (non-muscle myosin neo-epitope N2 12mer sequence).
T1 construct: also called N2 12-mer peptide
T1 peptide: LMKNMDPLNDNV
Description: SPR (BIACORE X100), IgG capture and direct immobilization of antibody, N2 peptide in solution. The text has this:
(§1) The remaining sequences represent the germline sequences with the highest homology that encode productive antibody. All of the humanized sequences maintain the murine 21G6 CDR regions which are shown inside the boxes in FIG. 1. The humanized variable regions were cloned into a vector containing wild type human IgG1, human IgG1 containing a mutation at amino acid 297 (Asn 297 to Q297), human IgG4 containing a mutation at amino acid 228 (serine to proline) and human kappa light chain. Each antibody (heavy and light) combination was expressed by transient co-transfection in 293A cells (in the presence of low Ig serum). The antibody containing supernatants were collected and analyzed for binding to the N2 peptide by ELISA and BIACORE™ X100 system. All experiments were performed using a BIACORE™ X100 system. […]
For orientation: In SPR one partner is held on a chip, and binding of the other changes the refractive index at the surface.

In assay [2] the target is T2, Biotin-labeled N2 peptide (also: biotin label, position not given here).
T2 construct: also called immobilized N2
T2 peptide: LMKNMDPLNDNV
Description: SPR (BIACORE X100), biotin-N2 peptide on NeutrAvidin chip, antibody in solution; kd/ka (monovalent). The text has this: (§2) The remaining sequences represent the germline sequences with the highest homology that encode productive antibody. All of the humanized sequences maintain the murine 21G6 CDR regions which are shown inside the boxes in FIG. 1. The humanized variable regions were cloned into a vector containing wild type human IgG1, human IgG1 containing a mutation at amino acid 297 (Asn 297 to Q297), human IgG4 containing a mutation at amino acid 228 (serine to proline) and human kappa light chain. Each antibody (heavy and light) combination was expressed by transient co-transfection in 293A cells (in the presence of low Ig serum). The antibody containing supernatants were collected and analyzed for binding to the N2 peptide by ELISA and BIACORE™ X100 system. All experiments were performed using a BIACORE™ X100 system. For antibody capture experiments, a CM5 chip was prepared by 10 ul/minute injection of EDC/NHS (N-ethyl-N′-(3-dimethylaminopropyl) carbodiimide (EDC), N-hydroxysuccinimide (NHS) for 7 minutes, followed by a 10 ul/minute injection of anti-human Fc (GE Lifesciences) at a concentration of 25 ug/ml in sodium acetate at pH 5 for 3 minutes. Ethanolamine-HCl was injected for 7 minutes at 10 ul/minute. The chimeric or humanized antibodies were captured onto flow cell 2 and N2 peptide at varying concentrations was flowed over flow cells 1 and 2 at a rate of 30 ul/minute with a contact time of 120 seconds and a dissociation period of 120 seconds. Complete removal of captured antibody was accomplished by regeneration with 3M MgCl2 for 30 seconds at a flow rate of 10 ul/minute. For peptide immobilized experiments, a CM5 chip was prepared by 10 ul/minute injection of EDC/NHS (N-ethyl-N′-(3-dimethylaminopropyl) carbodiimide (EDC), N-hydroxysuccinimide (NHS) for 7 minutes, followed by a 10 ul/minute injection of NEUTRAVIDIN® protein (ThermoFisher Pierce) at a concentration of 5 ug/ml in sodium acetate, pH 5 to an immobilization response of 100-200RU. Ethanolamine-HCl was injected for 7 minutes at 10 ul/minute. Biotin-labeled N2 peptide was captured on flow channel 2 with the goal of an experimental Rmax of about 50-100RU. Purified chimeric or humanized antibodies were flowed over both flow channels at a rate of 30 ul/min for a contact time of 120 seconds and allowed to dissociate for 600 seconds.

Assay [3] addresses T2, Biotin-labeled N2 peptide. The experiment in a line: SPR (BIACORE X100), biotin-N2 peptide on NeutrAvidin chip, antibody in solution; steady state affinity.
From the text: as §2, with “The” for “The remaining sequences represent the germline sequences with the highest homology that encode productive antibody. All of the humanized sequences maintain the murine 21G6 CDR regions which are shown inside the boxes in FIG. 1. The”

In assay [4] the target is T2, Biotin-labeled N2 peptide. The experiment in a line: SPR (BIACORE X100), biotin-N2 peptide on NeutrAvidin chip, antibody in solution; upper end of the printed range 8.6-9.1.
From the text: as §1

The target of assay [5] is T2, Biotin-labeled N2 peptide. The experiment in a line: SPR (BIACORE X100), biotin-N2 peptide on NeutrAvidin chip, antibody in solution; upper end of the printed range 2.0-3.2.
From the text: as §1

The target of assay [6] is T2, Biotin-labeled N2 peptide. The experiment in a line: SPR (BIACORE X100), biotin-N2 peptide on NeutrAvidin chip, antibody in solution; upper end of the printed range 2.0-5.2.
From the text: as §1

Assay [7] deals with T2, Biotin-labeled N2 peptide. The experiment in a line: SPR (BIACORE X100), biotin-N2 peptide on NeutrAvidin chip, antibody in solution; upper end of the printed range 3-6.5.
From the text: as §1

For assay [8], the target named is T2, Biotin-labeled N2 peptide. The experiment in a line: SPR (BIACORE X100), biotin-N2 peptide on NeutrAvidin chip, antibody in solution; upper end of the printed range 4.3-6.5.
From the text: as §1

In assay [9] the target is T2, Biotin-labeled N2 peptide. The experiment in a line: SPR (BIACORE X100), biotin-N2 peptide on NeutrAvidin chip, antibody in solution; upper end of the printed range 1.5-4.3.
From the text: as §1

For assay [10], the target named is T1, N2 peptide (non-muscle myosin …). Description: SPR (BIACORE X100), immobilized antibody, N2 peptide in solution; lower end of the printed range 4-6 uM.
From the text: as §1

Assay [11] deals with T2, Biotin-labeled N2 peptide. Description: SPR (BIACORE X100), biotin-N2 peptide on NeutrAvidin chip, antibody in solution; upper end of the printed range 5-53.
From the text: as §1

Assay [12] deals with T2, Biotin-labeled N2 peptide. Description: SPR (BIACORE X100), biotin-N2 peptide on NeutrAvidin chip, antibody in solution; upper end of the printed range 1-11.
From the text: as §1

In assay [13] the target is T1, N2 peptide (non-muscle myosin …). The experiment in a line: SPR (BIACORE X100), antibody captured by anti-human Fc, N2 peptide in solution.
From the text: as §2

Assay [14] deals with T2, Biotin-labeled N2 peptide. Description: SPR (BIACORE X100), biotin-N2 peptide on NeutrAvidin chip, antibody in solution; upper end of the printed range 7-10.
From the text: as §1

For assay [15], the target named is T2, Biotin-labeled N2 peptide. The experiment in a line: SPR (BIACORE X100), biotin-N2 peptide on NeutrAvidin chip, antibody in solution; upper end of the printed range 7-19.
From the text: as §1

Substitutions are numbered along the chain they refer to. Names and notes keep the numbering of the source. Ends that are not written are not given here.

B1: H4-21G6 / L2-21G6, human IgG1 N297Q (antibody, V domains shown)
VH: QVQLVQSGAEVKKPGASVKVSCKASGYTFTSYYMYWVRQAPGQGLEWMGGINPSNGGTNFNEKFKSRVTMTTDTSTSTAYMELRSLRSDDTAVYYCTRWGYDREWFAYWGQGTLVTVSS
VL: DIVMTQSPLSLPVTPGEPASISCRSSKSLLHSNGNTYLYWFLQKPGQSPQLLIYRMSNLASGVPDRFSGSGSGTDFTLKISRVEAEDVGVYYCMQHLEYPFTFGQGTKLEIKR
notes: also called H4/L2 N297Q
Consider B1, for which the Kd in assay [1] fell in the range of 6000 to 11000 nM.

B2: H2-21G6 / L2-21G6 (Table 2, constant region not stated) (antibody, V domains shown)
VH: B1 VH with M48I, R67K, V68A, T72V, T74K, T91S
VL: B1 VL
notes: human kappa light chain; also called H2/L2
In the case of B2, the Kd in assay [2] was 280 to 420 nM; in assay [3], 240 nM. Further, the off-rate constant (koff) in [4] is 0.0091 s⁻¹. Also, in assay [5], the kon stood at 32000 M⁻¹ s⁻¹.

B3: H3-21G6 / L1-21G6 (Table 2, constant region not stated) (antibody, V domains shown)
VH: B1 VH with A16S, M48I, R67K, V68A, M70I, T72V, T74K, R84S, D89E
VL: DIVMTQSPATLSVSPGERATISCRSSKSLLHSNGNTYLYWFQQKPGQPPKVLIYRMSNLASGVPARFSGSGSGTDFTLTISSVEPEDFATYYCMQHLEYPFTFGGGTKLEIKR
notes: human kappa light chain; also called H3/L1
Regarding B3, the values for the Kd in assay [2] and in assay [3] were 300 nM and 280 nM, respectively. In addition, the kon in assay [6] came out at 52000 M⁻¹ s⁻¹. Further, the koff in assay [7] was determined as 0.0065 s⁻¹.

B4: H1-21G6 / L1-21G6 (Table 2, constant region not stated) (antibody, V domains shown)
VH: QVQLVQSGAEVVKPGASVKLSCKASGYTFTSYYMYWVKQAPGQGLEWIGGINPSNGGTNFNEKFKSKATLTVDKSASTAYMELSSLRSEDTAVYYCTRWGYDREWFAYWGQGTLVTVSS
VL: B3 VL
notes: human kappa light chain; also called H1/L1
On to B4, for which the Kd in assay [2] was 100 to 430 nM; in assay [3], 320 nM. In addition, the koff in assay [8] stood at 0.0065 s⁻¹. For the same molecule, the kon in assay [9] turned out to be 43000 M⁻¹ s⁻¹.

B5: Murine 21G6 antibody (antibody, V domains shown)
VH: B4 VH with V5Q, S7P, V11L, A40R, A76S, E82Q, R87T, T91S, S119A
VL: DIVMTQAAPSVPVTPGESVSISCRSSKSLLHSNGNTYLYWFLQRPGQSPQVLIYRMSNLASGVPDRFSGSGSGTAFTLRISRVEAEDVGVYYCMQHLEYPFTFGSGTKLEIKR
notes: also called m21G6
Turning to B5, the figures for the Kd in [2], in [3] and in assay [10] were 200 to 400 nM, 313 to 540 nM and 4000 to 6000 nM, respectively. The koff in assay [11] is 0.053 s⁻¹. Further, in assay [12], the kon came out at 110000 M⁻¹ s⁻¹.

B6: Chimeric 21G6, human heavy chain constant region IgG1 with Q297 mutation (antibody, V domains shown)
VH: B4 VH with V5Q, S7P, V11L, A40R, A76S, E82Q, R87T, T91S, S119A
VL: B5 VL
notes: Human IgG1 constant region with Asn 297 to Gln; also called ch21G6 N297Q
In the case of B6, the Kd in assay [2] was 100 to 200 nM; in [3], 196 to 240 nM; in [13], 5600 nM. Moreover, the kon in assay [14] is 100000 M⁻¹ s⁻¹. For the same molecule, the dissociation rate constant (koff) in assay [15] was determined as 0.019 s⁻¹.
